Patent publication US20200399314A1 (MEDIKINE, published 2020)
Bridge positions count the residues as written; N and C are the ends. Ends that are not written are not given here.

T1: human IL-2Rα subunit (human, UniProt P01589 22-213, limits assumed)
T1 construct: also called CD25
T1 sequence (looked up): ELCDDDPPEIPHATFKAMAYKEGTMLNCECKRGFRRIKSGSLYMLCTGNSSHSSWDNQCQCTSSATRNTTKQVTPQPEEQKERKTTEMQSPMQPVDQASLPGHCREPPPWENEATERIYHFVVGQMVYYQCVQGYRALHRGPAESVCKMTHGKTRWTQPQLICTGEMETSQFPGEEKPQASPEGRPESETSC


Target: T1, human IL-2Rα subunit

Row | Binder | IC50
1 | CVLREGAEGWECVWR [SEQ ID NO 257] | < 100 µM
2 | FVHCSLMGCWCG [SEQ ID NO 253] | < 100 µM
3 | YVMCSAFGCKSI [SEQ ID NO 23] | < 100 µM
4 | VCCHQTFGCYRCKQ [SEQ ID NO 268] | < 100 µM
5 | LDLTYDELLACT [SEQ ID NO 2] | < 100 µM
6 | HGCTLTKPGAEWVCSF [SEQ ID NO 218] | < 100 µM
7 | VKCYRNSPGVEAYCVG (disulfide 3-14 (inferred)) [SEQ ID NO 224] | < 100 µM
8 | VRCRQNEPGGAYWCSS [SEQ ID NO 256] | < 100 µM
9 | FLPWPVYFSQVLGGG [SEQ ID NO 240] | < 100 µM
10 | TCRLKRSGPNSWECI [SEQ ID NO 249] | < 100 µM
11 | VYCRREKPGGEMHCRS [SEQ ID NO 213] | < 100 µM
12 | TCESLAKMYEVECN [SEQ ID NO 230] | < 100 µM
13 | CVVCSALGCRACVPR [SEQ ID NO 269] | < 100 µM
14 | RVCCTSDGCRGCRQ [SEQ ID NO 266] | < 100 µM
15 | IRCRYEKQSGICLF [SEQ ID NO 244] | < 100 µM
16 | CRMMQGTYGWTCLF (disulfide 1-12 (inferred)) [SEQ ID NO 258] | < 100 µM
17 | HVICSVNGGCRG [SEQ ID NO 242] | < 100 µM
18 | GGCSLVWADSWVCIF [SEQ ID NO 245] | < 100 µM
19 | YVMCSAFGCKSI [SEQ ID NO 241] | < 100 µM
20 | RRFCLRSEPTACWIV [SEQ ID NO 59] | < 100 µM
21 | RRFCLRSDPTACWIV [SEQ ID NO 63] | < 100 µM
22 | IRFCLRSEPTACWIV [SEQ ID NO 243] | < 100 µM
23 | RRFCLRSEPTACWDV [SEQ ID NO 62] | < 100 µM
24 | RRFCLRSEPMACWTV (disulfide 4-12 (inferred)) [SEQ ID NO 65] | < 100 µM

Row | Binder | IC50
25 | MRFCLRSEPTACWTV [SEQ ID NO 61] | < 100 µM
26 | KRFCLRSEPTACWTV [SEQ ID NO 64] | < 100 µM
27 | RRFCLRSEPTACWYV [SEQ ID NO 68] | < 100 µM
28 | IRFCLRSEPTACWIV [SEQ ID NO 54] | < 100 µM
29 | RRFCLRSEPTACWTV (disulfide 4-12 (inferred)) [SEQ ID NO 66] | < 100 µM
30 | VCFNFRGTVGRHCW [SEQ ID NO 255] | < 100 µM
31 | EWECRFLPGRRGCSLF [SEQ ID NO 247] | < 100 µM
32 | TVCCTVQGCWPCSR [SEQ ID NO 267] | < 100 µM
33 | WCIGQPLFRQGSCK [SEQ ID NO 250] | < 100 µM
34 | LTCLIFKPGTHRHCPV [SEQ ID NO 271] | < 100 µM
35 | QLCPWSDPGSWGPCPL [SEQ ID NO 219] | < 100 µM
36 | LVFCGKNGCHSG [SEQ ID NO 21] | < 100 µM
37 | ATCHLLAPGVDNTCIF [SEQ ID NO 217] | < 100 µM
38 | RVCCTFAGCRVCHK [SEQ ID NO 265] | < 100 µM
39 | WCWEPHDQYYVRCP [SEQ ID NO 232] | < 100 µM
40 | VVLCTPKGCRSA [SEQ ID NO 22] | < 100 µM
41 | WCVGQPLYRLGSCK (disulfide 2-13 (inferred)) [SEQ ID NO 238] | < 100 µM
42 | QVCCTSRGCRVCAPV [SEQ ID NO 263] | < 100 µM
43 | VWDCFVRGWEAGVAAVGE [SEQ ID NO 270] | < 100 µM
44 | WCIGQPLFRQGSCK [SEQ ID NO 237] | < 100 µM
45 | YCHDFKGTVGTLCI (disulfide 2-13 (inferred)) [SEQ ID NO 233] | < 100 µM
46 | RDCAGMEPGTSVFCDN [SEQ ID NO 220] | < 100 µM
47 | CTLYRSAPGVWLCIF [SEQ ID NO 260] | < 100 µM
48 | RVCCSMVGCRSCNL [SEQ ID NO 264] | < 100 µM

Row | Binder | IC50
49 | PCQRLAEYYSQQCL (disulfide 2-13 (inferred)) [SEQ ID NO 228] | < 100 µM
50 | DCLDLRGTVGMVCQ [SEQ ID NO 227] | < 100 µM
51 | RDCFILEPGTSVYCDL [SEQ ID NO 221] | < 100 µM
52 | SCMDLKGSVGWVCD [SEQ ID NO 229] | < 100 µM
53 | KGCTLQNPGSGWVCLF [SEQ ID NO 248] | < 100 µM
54 | VKCFMSTPGQIAYCTT [SEQ ID NO 223] | < 100 µM
55 | RCLDLGGSVGLVCF [SEQ ID NO 254] | < 100 µM
56 | AVCCDGNSCRRC [SEQ ID NO 252] | < 100 µM
57 | AVSCNSWRCIPW [SEQ ID NO 251] | < 100 µM
58 | FVHCTLLGCWSG [SEQ ID NO 24] | < 100 µM
59 | TCESLARMYNENCI [SEQ ID NO 231] | < 100 µM
60 | IVCCNMFGCHTCRN [SEQ ID NO 262] | < 100 µM
61 | TDCQETWPGDRPWCHI [SEQ ID NO 222] | < 100 µM
62 | WVICSALGCRSM [SEQ ID NO 30] | < 100 µM
63 | WVICSALGCRSI [SEQ ID NO 33] | < 100 µM
64 | WVICSAMGCRSI [SEQ ID NO 32] | < 100 µM
65 | WVICSAFGCRSM [SEQ ID NO 34] | < 100 µM
66 | WVICSALGCRSL [SEQ ID NO 29] | < 100 µM
67 | WDQFQLGWEAGVAA [SEQ ID NO 239] | < 100 µM
68 | GCQLVWQDDSYMCFY [SEQ ID NO 234] | < 100 µM
69 | CILNDTIQGWVCIY [SEQ ID NO 259] | < 100 µM
70 | CLVFDQYGNYKRRC [SEQ ID NO 261] | < 100 µM
71 | GCSLMWQDGWWVCI [SEQ ID NO 246] | < 100 µM
